According to the supplement of paper PMC9112550, “Optimization of the antimicrobial peptide Bac7 by deep mutational scanning” (BMC Biology, 2022):

Test system: Escherichia coli TOP10
Test: shrunken log2 fold change of peptide-encoding DNA abundance (4.5 h post-induction vs induction); higher = less antimicrobial activity (less host growth inhibition)
Conditions: time post-induction: 4.5 h; library: site-saturation at positions 5, 18, 19, 20
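Note: peptides expressed intracellularly from a pBAD plasmid library in pooled LB shake-flask culture, induced with 0.3% L-arabinose, DNA abundance read by NGS, three biological replicates, DESeq2 with apeglm shrinkage.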

Sequence	shrunken log2 fold change
RRIRERPPRLPRPRPRPDCLPRP	-0.428
RRIRYRPPRLPRPRPRPWSWPRP	0.0225
RRIRGRPPRLPRPRPRPNPHPRP	0.216
RRIRWRPPRLPRPRPRPFQNPRP	-0.235
RRIRKRPPRLPRPRPRPPNHPRP	0.33
RRIRIRPPRLPRPRPRPKPGPRP	0.53
RRIRRRPPRLPRPRPRPIFGPRP	0.338
RRIRYRPPRLPRPRPRPQKPPRP	-0.0745
RRIRNRPPRLPRPRPRPTAHPRP	0.0105
RRIRHRPPRLPRPRPRPEYDPRP	-0.0789
RRIRPRPPRLPRPRPRPKYDPRP	-0.612
RRIRGRPPRLPRPRPRPCDKPRP	0.297
RRIRKRPPRLPRPRPRPFILPRP	-0.0304
RRIRSRPPRLPRPRPRPGRAPRP	1.02
RRIRKRPPRLPRPRPRPSKIPRP	0.154
RRIRHRPPRLPRPRPRPVSLPRP	-0.0931
RRIRARPPRLPRPRPRPYWQPRP	0.046
RRIRNRPPRLPRPRPRPSELPRP	-0.135
RRIRQRPPRLPRPRPRPMGPPRP	-0.0254
RRIRWRPPRLPRPRPRPCMMPRP	-0.229
RRIRWRPPRLPRPRPRPECCPRP	1.22
RRIRFRPPRLPRPRPRPRMQPRP	0.206

Sequence	shrunken log2 fold change
RRIRCRPPRLPRPRPRPCMDPRP	-0.09
RRIRFRPPRLPRPRPRPCYPPRP	-0.451
RRIRARPPRLPRPRPRPSRPPRP	0.612
RRIRERPPRLPRPRPRPMFLPRP	-0.206
RRIRPRPPRLPRPRPRPEYKPRP	-0.293
RRIRCRPPRLPRPRPRPNQQPRP	0.00277
RRIRRRPPRLPRPRPRPDISPRP	0.0322
RRIRWRPPRLPRPRPRPINWPRP	0.0481
RRIRYRPPRLPRPRPRPVTSPRP	-0.168
RRIRCRPPRLPRPRPRPDRYPRP	0.00956
RRIRIRPPRLPRPRPRPDAMPRP	-0.112
RRIRPRPPRLPRPRPRPTQPPRP	0.402
RRIRERPPRLPRPRPRPYTQPRP	-0.0502
RRIRYRPPRLPRPRPRPWVKPRP	0.0136
RRIRCRPPRLPRPRPRPKRKPRP	0.157
RRIRFRPPRLPRPRPRPMHAPRP	0.0753
RRIRVRPPRLPRPRPRPCPNPRP	-0.245
RRIRSRPPRLPRPRPRPPWNPRP	0.0621
RRIRERPPRLPRPRPRPTGVPRP	-0.129
RRIRMRPPRLPRPRPRPMCDPRP	0.709
RRIRLRPPRLPRPRPRPSELPRP	-0.195
RRIRRRPPRLPRPRPRPCECPRP	0.076

Sequence	shrunken log2 fold change
RRIRMRPPRLPRPRPRPTPIPRP	0.255
RRIRERPPRLPRPRPRPKPYPRP	0.082
RRIRMRPPRLPRPRPRPLDMPRP	0.167
RRIRNRPPRLPRPRPRPYCKPRP	-0.258
RRIRTRPPRLPRPRPRPDTCPRP	-0.0125
RRIRYRPPRLPRPRPRPHNYPRP	-0.365
RRIRCRPPRLPRPRPRPAWGPRP	0.193
RRIRHRPPRLPRPRPRPGSKPRP	-0.00664
RRIRTRPPRLPRPRPRPREMPRP	0.101
RRIRHRPPRLPRPRPRPQTDPRP	-1.36
RRIRNRPPRLPRPRPRPRIIPRP	-0.425
RRIRDRPPRLPRPRPRPCRGPRP	-0.138
RRIRLRPPRLPRPRPRPPMQPRP	0.189
RRIRVRPPRLPRPRPRPRPYPRP	0.179
RRIRPRPPRLPRPRPRPYNPPRP	-0.84
RRIRERPPRLPRPRPRPGMPPRP	-0.0315
RRIRPRPPRLPRPRPRPYTIPRP	0.00679
RRIRVRPPRLPRPRPRPRMAPRP	0.199
RRIRMRPPRLPRPRPRPTRSPRP	1.35
RRIRSRPPRLPRPRPRPKYNPRP	-0.62
RRIRERPPRLPRPRPRPCVLPRP	0.0248
RRIRCRPPRLPRPRPRPEILPRP	-0.0141

Sequence	shrunken log2 fold change
RRIRKRPPRLPRPRPRPPRKPRP	0.821
RRIRNRPPRLPRPRPRPSFGPRP	0.00557
RRIRWRPPRLPRPRPRPQLVPRP	0.144
RRIRRRPPRLPRPRPRPQSCPRP	0.107
RRIRKRPPRLPRPRPRPQVMPRP	-0.162
RRIRKRPPRLPRPRPRPFDRPRP	0.375
RRIRVRPPRLPRPRPRPQDYPRP	-0.125
RRIRDRPPRLPRPRPRPASMPRP	0.483
RRIRQRPPRLPRPRPRPCIGPRP	-0.204
RRIRARPPRLPRPRPRPSMCPRP	-0.081
RRIRKRPPRLPRPRPRPISSPRP	-0.0713
RRIRPRPPRLPRPRPRPMGYPRP	-0.0838
RRIRCRPPRLPRPRPRPEGSPRP	-0.043
RRIRDRPPRLPRPRPRPHIEPRP	0.0695
RRIRSRPPRLPRPRPRPIHLPRP	0.0485
RRIRMRPPRLPRPRPRPVWMPRP	0.169
RRIRTRPPRLPRPRPRPQQKPRP	-0.0118
RRIRLRPPRLPRPRPRPIQAPRP	0.0789
RRIRARPPRLPRPRPRPVFNPRP	-0.297
RRIRQRPPRLPRPRPRPWGGPRP	0.102
RRIRFRPPRLPRPRPRPCNGPRP	-0.212
RRIRPRPPRLPRPRPRPKNCPRP	-0.238

Sequence	shrunken log2 fold change
RRIRQRPPRLPRPRPRPTDHPRP	0.0174
RRIRQRPPRLPRPRPRPCSCPRP	0.0297
RRIRKRPPRLPRPRPRPLCLPRP	-0.126
RRIRVRPPRLPRPRPRPNIHPRP	-0.556
RRIRWRPPRLPRPRPRPNQSPRP	-0.108
RRIRRRPPRLPRPRPRPICHPRP	0.692
RRIRNRPPRLPRPRPRPLLRPRP	-0.267
RRIRKRPPRLPRPRPRPVETPRP	0.416
RRIRTRPPRLPRPRPRPQKRPRP	0.206
RRIRWRPPRLPRPRPRPKNNPRP	-0.136
RRIRNRPPRLPRPRPRPMFGPRP	-0.23
RRIRSRPPRLPRPRPRPLFYPRP	-0.413
RRIRARPPRLPRPRPRPDGIPRP	0.446
RRIRARPPRLPRPRPRPSRKPRP	0.00605
RRIRSRPPRLPRPRPRPTATPRP	0.703
RRIRDRPPRLPRPRPRPTYLPRP	0.00451
RRIRGRPPRLPRPRPRPIVDPRP	0.0357
RRIRWRPPRLPRPRPRPMDEPRP	0.0255
RRIRIRPPRLPRPRPRPWRAPRP	0.0578
RRIRTRPPRLPRPRPRPLYDPRP	-0.824
RRIRPRPPRLPRPRPRPTEPPRP	0.179
